Our source for the Kd values is publication PMC10570013.

This series concerns the target Nsp8 NTD (SARS-CoV-2, UniProt P0DTD1). In words: NMR.

B1: model dsRNA (dsRNA)
RNA 1: GAUGCUACGCGGUAGUA
RNA 2: GUACUACCGCGUAGCAUC
B1 displayed a Kd of roughly 14.1 µM.

The Kd is a measure of binding affinity in units of concentration. A high value points to weaker binding.
